Numbered stars: 1 amine (or outer) side, 2 acyl side, 3 side chain; on linkers, the order of the positions; unused ones are H or OH. Side chains are listed from the residue outwards. Ends that are not written are not given here. * marks the point of attachment. γGlu = O=C(O)[C@H](CCC(=O)[*:2])N[*:1]; Palmitoyl = CCCCCCCCCCCCCCCC(=O)*; Ahx = NCCCCCC(=O)O
T1: human glucose-dependent insulinotropic peptide (gastric inhibitory polypeptide) receptor (human) (UniProt P48546)
T1 sequence (looked up): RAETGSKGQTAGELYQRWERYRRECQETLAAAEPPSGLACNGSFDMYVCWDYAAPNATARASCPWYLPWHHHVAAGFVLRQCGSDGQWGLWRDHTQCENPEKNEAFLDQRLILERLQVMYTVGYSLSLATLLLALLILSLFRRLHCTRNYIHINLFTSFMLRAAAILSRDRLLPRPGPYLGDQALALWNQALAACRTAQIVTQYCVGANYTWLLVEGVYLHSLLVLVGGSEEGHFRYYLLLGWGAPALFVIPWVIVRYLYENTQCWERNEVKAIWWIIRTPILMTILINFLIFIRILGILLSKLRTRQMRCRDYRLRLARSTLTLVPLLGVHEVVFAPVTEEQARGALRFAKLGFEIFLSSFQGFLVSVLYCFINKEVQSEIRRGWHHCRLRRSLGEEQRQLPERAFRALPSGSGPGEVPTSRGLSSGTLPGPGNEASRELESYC

B1: g726 (peptide)
peptide: HGEGTFTSDYSEYLDSK([Ahx-Palmitoyl])RARDFVEWLERGG-NH2
modifications: N-terminus assumed
SMILES: CCCCCCCCCCCCCCCC(=O)NCCCCCC(=O)NCCCC[C@H](NC(=O)[C@H](CO)NC(=O)[C@H](CC(=O)O)NC(=O)[C@H](CC(C)C)NC(=O)[C@H](Cc1ccc(O)cc1)NC(=O)[C@H](CCC(=O)O)NC(=O)[C@H](CO)NC(=O)[C@H](Cc1ccc(O)cc1)NC(=O)[C@H](CC(=O)O)NC(=O)[C@H](CO)NC(=O)[C@@H](NC(=O)[C@H](Cc1ccccc1)NC(=O)[C@@H](NC(=O)CNC(=O)[C@H](CCC(=O)O)NC(=O)CNC(=O)[C@@H](N)Cc1c[nH]cn1)[C@@H](C)O)[C@@H](C)O)C(=O)N[C@@H](CCCNC(=N)N)C(=O)N[C@@H](C)C(=O)N[C@@H](CCCNC(=N)N)C(=O)N[C@@H](CC(=O)O)C(=O)N[C@@H](Cc1ccccc1)C(=O)N[C@H](C(=O)N[C@@H](CCC(=O)O)C(=O)N[C@@H](Cc1c[nH]c2ccccc12)C(=O)N[C@@H](CC(C)C)C(=O)N[C@@H](CCC(=O)O)C(=O)N[C@@H](CCCNC(=N)N)C(=O)NCC(=O)NCC(N)=O)C(C)C
B2: g322 (peptide)
peptide: HSQGTFTSDYSKYLDSRRAQDFVQWLVAGGKNNRNNIAK(Palmitoyl)-NH2
modifications: N-terminus assumed
SMILES: CCCCCCCCCCCCCCCC(=O)NCCCC[C@H](NC(=O)[C@H](C)NC(=O)[C@@H](NC(=O)[C@H](CC(N)=O)NC(=O)[C@H](CC(N)=O)NC(=O)[C@H](CCCNC(=N)N)NC(=O)[C@H](CC(N)=O)NC(=O)[C@H](CC(N)=O)NC(=O)[C@H](CCCCN)NC(=O)CNC(=O)CNC(=O)[C@H](C)NC(=O)[C@@H](NC(=O)[C@H](CC(C)C)NC(=O)[C@H](Cc1c[nH]c2ccccc12)NC(=O)[C@H](CCC(N)=O)NC(=O)[C@@H](NC(=O)[C@H](Cc1ccccc1)NC(=O)[C@H](CC(=O)O)NC(=O)[C@H](CCC(N)=O)NC(=O)[C@H](C)NC(=O)[C@H](CCCNC(=N)N)NC(=O)[C@H](CCCNC(=N)N)NC(=O)[C@H](CO)NC(=O)[C@H](CC(=O)O)NC(=O)[C@H](CC(C)C)NC(=O)[C@H](Cc1ccc(O)cc1)NC(=O)[C@H](CCCCN)NC(=O)[C@H](CO)NC(=O)[C@H](Cc1ccc(O)cc1)NC(=O)[C@H](CC(=O)O)NC(=O)[C@H](CO)NC(=O)[C@@H](NC(=O)[C@H](Cc1ccccc1)NC(=O)[C@@H](NC(=O)CNC(=O)[C@H](CCC(N)=O)NC(=O)[C@H](CO)NC(=O)[C@@H](N)Cc1c[nH]cn1)[C@@H](C)O)[C@@H](C)O)C(C)C)C(C)C)[C@@H](C)CC)C(N)=O
B3: g326 (peptide)
peptide: HSQGTFTSDYSKYLDSRRAQDFVQWLVAGGGGGGK(Palmitoyl)-NH2
modifications: N-terminus assumed
SMILES: CCCCCCCCCCCCCCCC(=O)NCCCC[C@H](NC(=O)CNC(=O)CNC(=O)CNC(=O)CNC(=O)CNC(=O)CNC(=O)[C@H](C)NC(=O)[C@@H](NC(=O)[C@H](CC(C)C)NC(=O)[C@H](Cc1c[nH]c2ccccc12)NC(=O)[C@H](CCC(N)=O)NC(=O)[C@@H](NC(=O)[C@H](Cc1ccccc1)NC(=O)[C@H](CC(=O)O)NC(=O)[C@H](CCC(N)=O)NC(=O)[C@H](C)NC(=O)[C@H](CCCNC(=N)N)NC(=O)[C@H](CCCNC(=N)N)NC(=O)[C@H](CO)NC(=O)[C@H](CC(=O)O)NC(=O)[C@H](CC(C)C)NC(=O)[C@H](Cc1ccc(O)cc1)NC(=O)[C@H](CCCCN)NC(=O)[C@H](CO)NC(=O)[C@H](Cc1ccc(O)cc1)NC(=O)[C@H](CC(=O)O)NC(=O)[C@H](CO)NC(=O)[C@@H](NC(=O)[C@H](Cc1ccccc1)NC(=O)[C@@H](NC(=O)CNC(=O)[C@H](CCC(N)=O)NC(=O)[C@H](CO)NC(=O)[C@@H](N)Cc1c[nH]cn1)[C@@H](C)O)[C@@H](C)O)C(C)C)C(C)C)C(N)=O
B4: g725 (peptide)
peptide: HGEGTFTSDYSEYLDSK([Ahx-Palmitoyl])RAADFVAWLERGG-NH2
modifications: N-terminus assumed
SMILES: CCCCCCCCCCCCCCCC(=O)NCCCCCC(=O)NCCCC[C@H](NC(=O)[C@H](CO)NC(=O)[C@H](CC(=O)O)NC(=O)[C@H](CC(C)C)NC(=O)[C@H](Cc1ccc(O)cc1)NC(=O)[C@H](CCC(=O)O)NC(=O)[C@H](CO)NC(=O)[C@H](Cc1ccc(O)cc1)NC(=O)[C@H](CC(=O)O)NC(=O)[C@H](CO)NC(=O)[C@@H](NC(=O)[C@H](Cc1ccccc1)NC(=O)[C@@H](NC(=O)CNC(=O)[C@H](CCC(=O)O)NC(=O)CNC(=O)[C@@H](N)Cc1c[nH]cn1)[C@@H](C)O)[C@@H](C)O)C(=O)N[C@@H](CCCNC(=N)N)C(=O)N[C@@H](C)C(=O)N[C@@H](C)C(=O)N[C@@H](CC(=O)O)C(=O)N[C@@H](Cc1ccccc1)C(=O)N[C@H](C(=O)N[C@@H](C)C(=O)N[C@@H](Cc1c[nH]c2ccccc12)C(=O)N[C@@H](CC(C)C)C(=O)N[C@@H](CCC(=O)O)C(=O)N[C@@H](CCCNC(=N)N)C(=O)NCC(=O)NCC(N)=O)C(C)C
B5: g727 (peptide)
peptide: HGQGTFTSDYSEYLDSK([Ahx-Palmitoyl])RARDFVAWLERGG-OH
modifications: N-terminus assumed
SMILES: CCCCCCCCCCCCCCCC(=O)NCCCCCC(=O)NCCCC[C@H](NC(=O)[C@H](CO)NC(=O)[C@H](CC(=O)O)NC(=O)[C@H](CC(C)C)NC(=O)[C@H](Cc1ccc(O)cc1)NC(=O)[C@H](CCC(=O)O)NC(=O)[C@H](CO)NC(=O)[C@H](Cc1ccc(O)cc1)NC(=O)[C@H](CC(=O)O)NC(=O)[C@H](CO)NC(=O)[C@@H](NC(=O)[C@H](Cc1ccccc1)NC(=O)[C@@H](NC(=O)CNC(=O)[C@H](CCC(N)=O)NC(=O)CNC(=O)[C@@H](N)Cc1c[nH]cn1)[C@@H](C)O)[C@@H](C)O)C(=O)N[C@@H](CCCNC(=N)N)C(=O)N[C@@H](C)C(=O)N[C@@H](CCCNC(=N)N)C(=O)N[C@@H](CC(=O)O)C(=O)N[C@@H](Cc1ccccc1)C(=O)N[C@H](C(=O)N[C@@H](C)C(=O)N[C@@H](Cc1c[nH]c2ccccc12)C(=O)N[C@@H](CC(C)C)C(=O)N[C@@H](CCC(=O)O)C(=O)N[C@@H](CCCNC(=N)N)C(=O)NCC(=O)NCC(=O)O)C(C)C

Each binder was assayed against T1, human glucose-dependent insulinotropic peptide (gastric inhibitory polypeptide) receptor (human) (assay: cell-based or functional assay).

Binder	cAMP EC50 (assay 1) [nM]
HSQGTFTSDYSKYLDSRRAQDFVQWLVAGGGGGGK([γGlu-Palmitoyl])-NH2 [g327]	12.8
HSQGTFTSDYSKYLDSRRAQDFVQWLVAGGGGGG-NH2 [g315]	19.7
B1	215
B2	1.72
HSQGTFTSDYSEYLDSK([Ahx-Palmitoyl])RARDFVAWLERGG-OH (not fully specified) [g826]	58
HSQGTFTSDYSEYLDSK([Ahx-Palmitoyl])RARDFVAWLERGG-NH2 (not fully specified) [g794]	32.2
HSQGTFTSDYSKYLDSRAAQK([Ahx-Palmitoyl])FVQWLERGG-NH2 (not fully specified) [g806]	105
B3	12.6
HSQGTFTSDYSEYLDSK([Ahx-Palmitoyl])RARDFVEWLERGG-NH2 (not fully specified) [g771]	37.1
HSQGTFTSDYSKYLDSRRAQDFVQWLVAGGKNNRNNIAK-NH2 [g321]	6.41
HSQGTFTSDYSKYLDSRRAQDFVQWLVAGGSSGGSS-NH2 [g316]	3.65
B4	1480
B5	177
HSQGTFTSDYSEYLDSK([Ahx-Palmitoyl])RAADFVAWLERGG-NH2 (not fully specified) [g818]	94

What follows are binders tested against human GLP-1 receptor (human, UniProt P43220 24-463) (assay: cell-based or functional assay).
Chain of human GLP-1 receptor (P43220 24-463): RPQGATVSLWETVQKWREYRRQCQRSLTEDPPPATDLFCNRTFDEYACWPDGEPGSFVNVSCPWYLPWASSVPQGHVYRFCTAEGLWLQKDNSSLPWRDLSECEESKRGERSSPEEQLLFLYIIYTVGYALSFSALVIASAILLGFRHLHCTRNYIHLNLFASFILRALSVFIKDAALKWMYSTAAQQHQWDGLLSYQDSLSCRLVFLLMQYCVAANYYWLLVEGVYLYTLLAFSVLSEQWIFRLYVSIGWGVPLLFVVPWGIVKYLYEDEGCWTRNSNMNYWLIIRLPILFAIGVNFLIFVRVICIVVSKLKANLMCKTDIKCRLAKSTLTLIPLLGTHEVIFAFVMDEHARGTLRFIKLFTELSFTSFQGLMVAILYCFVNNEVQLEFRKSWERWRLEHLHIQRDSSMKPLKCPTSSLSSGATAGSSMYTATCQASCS

Binder	cAMP EC50 (assay 1) [nM]
HSQGTFTSDYSKYLDSRRAQDFVQWLVAGGGGGGK([γGlu-Palmitoyl])-NH2 [g327]	0.0193
HSQGTFTSDYSKYLDSRRAQDFVQWLVAGGGGGG-NH2 [g315]	0.0273
B1	0.00791
B2	0.0106
HSQGTFTSDYSEYLDSK([Ahx-Palmitoyl])RARDFVAWLERGG-OH (not fully specified) [g826]	0.0293
HSQGTFTSDYSEYLDSK([Ahx-Palmitoyl])RARDFVAWLERGG-NH2 (not fully specified) [g794]	0.0157
HSQGTFTSDYSKYLDSRAAQK([Ahx-Palmitoyl])FVQWLERGG-NH2 (not fully specified) [g806]	0.171
B3	0.0247
HSQGTFTSDYSEYLDSK([Ahx-Palmitoyl])RARDFVEWLERGG-NH2 (not fully specified) [g771]	0.0175
HSQGTFTSDYSKYLDSRRAQDFVQWLVAGGKNNRNNIAK-NH2 [g321]	0.0272
HSQGTFTSDYSKYLDSRRAQDFVQWLVAGGSSGGSS-NH2 [g316]	0.0314
B4	0.0252
B5	0.0263
HSQGTFTSDYSEYLDSK([Ahx-Palmitoyl])RAADFVAWLERGG-NH2 (not fully specified) [g818]	0.021

Each binder was assayed against human glucagon receptor (human, UniProt P47871 26-477) (assay: cell-based or functional assay).
Chain of human glucagon receptor (P47871 26-477): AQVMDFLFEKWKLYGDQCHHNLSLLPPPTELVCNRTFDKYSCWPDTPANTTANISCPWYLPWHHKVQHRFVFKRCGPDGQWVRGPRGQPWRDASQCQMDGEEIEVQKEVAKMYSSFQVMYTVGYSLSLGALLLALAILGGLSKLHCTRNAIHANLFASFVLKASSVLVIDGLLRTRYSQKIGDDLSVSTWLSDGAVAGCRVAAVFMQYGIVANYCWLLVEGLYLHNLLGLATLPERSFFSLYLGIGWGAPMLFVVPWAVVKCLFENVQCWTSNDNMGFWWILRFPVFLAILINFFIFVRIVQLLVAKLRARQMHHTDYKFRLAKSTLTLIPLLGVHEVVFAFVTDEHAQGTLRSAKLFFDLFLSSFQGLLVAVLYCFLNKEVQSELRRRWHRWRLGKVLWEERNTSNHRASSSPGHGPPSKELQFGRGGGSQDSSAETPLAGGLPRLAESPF

Binder	cAMP EC50 (assay 1) [nM]
HSQGTFTSDYSKYLDSRRAQDFVQWLVAGGGGGGK([γGlu-Palmitoyl])-NH2 [g327]	0.00232
HSQGTFTSDYSKYLDSRRAQDFVQWLVAGGGGGG-NH2 [g315]	0.00504
B1	13.1
B2	0.00355
HSQGTFTSDYSEYLDSK([Ahx-Palmitoyl])RARDFVAWLERGG-OH (not fully specified) [g826]	0.00423
HSQGTFTSDYSEYLDSK([Ahx-Palmitoyl])RARDFVAWLERGG-NH2 (not fully specified) [g794]	0.00469
HSQGTFTSDYSKYLDSRAAQK([Ahx-Palmitoyl])FVQWLERGG-NH2 (not fully specified) [g806]	0.0099
B3	0.00282
HSQGTFTSDYSEYLDSK([Ahx-Palmitoyl])RARDFVEWLERGG-NH2 (not fully specified) [g771]	0.00551
HSQGTFTSDYSKYLDSRRAQDFVQWLVAGGKNNRNNIAK-NH2 [g321]	0.0279
HSQGTFTSDYSKYLDSRRAQDFVQWLVAGGSSGGSS-NH2 [g316]	0.0106
B4	59.9
B5	0.218
HSQGTFTSDYSEYLDSK([Ahx-Palmitoyl])RAADFVAWLERGG-NH2 (not fully specified) [g818]	0.0089
